From patent US20220204580A1 (AstraZeneca / MedImmune, published 2022)
Numbered stars: 1 amine (or outer) side, 2 acyl side, 3 side chain; on linkers, the order of the positions; unused ones are H or OH. Bridge positions count the residues as written; N and C are the ends. Square brackets hold non-standard residues; d marks the D form. Side chains are listed from the residue outwards. Ends that are not written are not given here. * marks the point of attachment. C18 diacid = O=C(O)CCCCCCCCCCCCCCCCC(=O)*; γGlu = O=C(O)[C@H](CCC(=O)[*:2])N[*:1]; αMeF = C[C@](N)(Cc1ccccc1)C(=O)O; Dab = NCC[C@H](N)C(=O)O; Aib = CC(C)(N)C(=O)O

T1: human amylin receptor (calcitonin receptor co-expressed with receptor activity modifying protein, RAMP3) (human, UniProt P30988 25-474; O60896 24-148)
T1 sequence (looked up) 1: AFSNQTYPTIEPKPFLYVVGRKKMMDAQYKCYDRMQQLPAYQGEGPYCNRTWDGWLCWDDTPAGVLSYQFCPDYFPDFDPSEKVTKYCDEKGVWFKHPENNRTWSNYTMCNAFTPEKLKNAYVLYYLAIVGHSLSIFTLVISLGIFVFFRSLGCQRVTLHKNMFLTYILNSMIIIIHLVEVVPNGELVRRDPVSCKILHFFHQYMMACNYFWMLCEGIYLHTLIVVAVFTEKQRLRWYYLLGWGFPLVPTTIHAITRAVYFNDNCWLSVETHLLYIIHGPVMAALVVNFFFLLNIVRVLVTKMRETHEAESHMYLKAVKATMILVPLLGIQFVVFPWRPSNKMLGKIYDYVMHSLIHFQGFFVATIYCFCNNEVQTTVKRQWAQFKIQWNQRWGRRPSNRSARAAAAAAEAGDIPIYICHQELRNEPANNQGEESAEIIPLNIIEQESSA
T1 sequence (looked up) 2: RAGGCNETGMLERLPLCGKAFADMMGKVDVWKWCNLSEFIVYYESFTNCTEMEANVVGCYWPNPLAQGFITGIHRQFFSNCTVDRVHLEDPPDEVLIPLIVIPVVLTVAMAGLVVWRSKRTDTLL

T2: human calcitonin receptor (human, UniProt P30988 25-474)
T2 sequence (looked up): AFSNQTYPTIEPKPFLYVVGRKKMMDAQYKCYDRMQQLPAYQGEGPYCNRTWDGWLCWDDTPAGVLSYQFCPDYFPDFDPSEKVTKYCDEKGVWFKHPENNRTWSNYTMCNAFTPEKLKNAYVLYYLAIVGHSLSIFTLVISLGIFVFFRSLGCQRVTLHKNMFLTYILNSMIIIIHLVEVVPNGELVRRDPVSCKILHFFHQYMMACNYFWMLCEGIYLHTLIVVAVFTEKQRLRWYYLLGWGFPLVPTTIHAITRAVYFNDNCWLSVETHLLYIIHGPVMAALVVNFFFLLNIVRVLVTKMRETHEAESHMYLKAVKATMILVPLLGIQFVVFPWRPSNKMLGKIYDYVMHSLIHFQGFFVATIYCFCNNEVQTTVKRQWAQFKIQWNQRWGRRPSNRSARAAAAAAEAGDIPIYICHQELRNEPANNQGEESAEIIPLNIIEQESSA


Tests used:
[1] = molecular target: T1, human amylin receptor (calcitonin …); test: cell-based or functional assay
[2] = molecular target: T2, human calcitonin receptor; test: cell-based or functional assay

Binder | EC50 (cAMP production) [1] | Ratio (EC50 hCTR / EC50 hAMYR3) [1] | EC50 (cAMP production) [2]
K([γGlu-C18 diacid])KCNTATCATQRLANFL[Aib]HSS[Dab]NFGPILPPTEVGSNTY-NH2 (disulfide 3-8; N-terminus assumed; SMILES CC[C@H](C)[C@H](NC(=O)[C@@H]1CCCN1C(=O)CNC(=O)[C@H](Cc1ccccc1)NC(=O)[C@H](CC(N)=O)NC(=O)[C@H](CCN)NC(=O)[C@H](CO)NC(=O)[C@H](CO)NC(=O)[C@H](Cc1c[nH]cn1)NC(=O)C(C)(C)NC(=O)[C@H](CC(C)C)NC(=O)[C@H](Cc1ccccc1)NC(=O)[C@H](CC(N)=O)NC(=O)[C@H](C)NC(=O)[C@H](CC(C)C)NC(=O)[C@H](CCCNC(=N)N)NC(=O)[C@H](CCC(N)=O)NC(=O)[C@@H](NC(=O)[C@H](C)NC(=O)[C@@H]1CSSC[C@H](NC(=O)[C@H](CCCCN)NC(=O)[C@@H](N)CCCCNC(=O)CC[C@H](NC(=O)CCCCCCCCCCCCCCCCC(=O)O)C(=O)O)C(=O)N[C@@H](CC(N)=O)C(=O)N[C@@H]([C@@H](C)O)C(=O)N[C@@H](C)C(=O)N[C@@H]([C@@H](C)O)C(=O)N1)[C@@H](C)O)C(=O)N[C@@H](CC(C)C)C(=O)N1CCC[C@H]1C(=O)N1CCC[C@H]1C(=O)N[C@H](C(=O)N[C@@H](CCC(=O)O)C(=O)N[C@H](C(=O)NCC(=O)N[C@@H](CO)C(=O)N[C@@H](CC(N)=O)C(=O)N[C@H](C(=O)N[C@@H](Cc1ccc(O)cc1)C(N)=O)[C@@H](C)O)C(C)C)[C@@H](C)O) [Peptide 30 (SEQ ID NO: 30)] | 0.873 nM | 12 | 10.5 nM
K([γGlu-C18 diacid])KCNTATCATQRLANFLVHSS[Dab]NFGPILPPTNVGSNTY-NH2 (disulfide 3-8; N-terminus assumed; SMILES CC[C@H](C)[C@H](NC(=O)[C@@H]1CCCN1C(=O)CNC(=O)[C@H](Cc1ccccc1)NC(=O)[C@H](CC(N)=O)NC(=O)[C@H](CCN)NC(=O)[C@H](CO)NC(=O)[C@H](CO)NC(=O)[C@H](Cc1c[nH]cn1)NC(=O)[C@@H](NC(=O)[C@H](CC(C)C)NC(=O)[C@H](Cc1ccccc1)NC(=O)[C@H](CC(N)=O)NC(=O)[C@H](C)NC(=O)[C@H](CC(C)C)NC(=O)[C@H](CCCNC(=N)N)NC(=O)[C@H](CCC(N)=O)NC(=O)[C@@H](NC(=O)[C@H](C)NC(=O)[C@@H]1CSSC[C@H](NC(=O)[C@H](CCCCN)NC(=O)[C@@H](N)CCCCNC(=O)CC[C@H](NC(=O)CCCCCCCCCCCCCCCCC(=O)O)C(=O)O)C(=O)N[C@@H](CC(N)=O)C(=O)N[C@@H]([C@@H](C)O)C(=O)N[C@@H](C)C(=O)N[C@@H]([C@@H](C)O)C(=O)N1)[C@@H](C)O)C(C)C)C(=O)N[C@@H](CC(C)C)C(=O)N1CCC[C@H]1C(=O)N1CCC[C@H]1C(=O)N[C@H](C(=O)N[C@@H](CC(N)=O)C(=O)N[C@H](C(=O)NCC(=O)N[C@@H](CO)C(=O)N[C@@H](CC(N)=O)C(=O)N[C@H](C(=O)N[C@@H](Cc1ccc(O)cc1)C(N)=O)[C@@H](C)O)C(C)C)[C@@H](C)O) [Peptide 29 (SEQ ID NO: 29)] | 0.243 nM | 34 | 8.21 nM
K([γGlu-C18 diacid])KCNTATCATQRLANFLVHSS[Dab]NFGPILPPTEVGSNTY-NH2 (disulfide 3-8; N-terminus assumed; SMILES CC[C@H](C)[C@H](NC(=O)[C@@H]1CCCN1C(=O)CNC(=O)[C@H](Cc1ccccc1)NC(=O)[C@H](CC(N)=O)NC(=O)[C@H](CCN)NC(=O)[C@H](CO)NC(=O)[C@H](CO)NC(=O)[C@H](Cc1c[nH]cn1)NC(=O)[C@@H](NC(=O)[C@H](CC(C)C)NC(=O)[C@H](Cc1ccccc1)NC(=O)[C@H](CC(N)=O)NC(=O)[C@H](C)NC(=O)[C@H](CC(C)C)NC(=O)[C@H](CCCNC(=N)N)NC(=O)[C@H](CCC(N)=O)NC(=O)[C@@H](NC(=O)[C@H](C)NC(=O)[C@@H]1CSSC[C@H](NC(=O)[C@H](CCCCN)NC(=O)[C@@H](N)CCCCNC(=O)CC[C@H](NC(=O)CCCCCCCCCCCCCCCCC(=O)O)C(=O)O)C(=O)N[C@@H](CC(N)=O)C(=O)N[C@@H]([C@@H](C)O)C(=O)N[C@@H](C)C(=O)N[C@@H]([C@@H](C)O)C(=O)N1)[C@@H](C)O)C(C)C)C(=O)N[C@@H](CC(C)C)C(=O)N1CCC[C@H]1C(=O)N1CCC[C@H]1C(=O)N[C@H](C(=O)N[C@@H](CCC(=O)O)C(=O)N[C@H](C(=O)NCC(=O)N[C@@H](CO)C(=O)N[C@@H](CC(N)=O)C(=O)N[C@H](C(=O)N[C@@H](Cc1ccc(O)cc1)C(N)=O)[C@@H](C)O)C(C)C)[C@@H](C)O) [Peptide 28 (SEQ ID NO: 28)] | 0.39 nM | 23 | 9.14 nM

Further lines, results first:

EC50 (cAMP production) [1] | Ratio (EC50 hCTR / EC50 hAMYR3) [1] | EC50 (cAMP production) [2] | Binder
0.598 nM | 26 | 15.8 nM | K([γGlu-C18 diacid])KCNTATCATQRLA[Dab]FLVHSSNNFGPILPPTNVGSNTY-NH2 (disulfide 3-8; N-terminus assumed; SMILES CC[C@H](C)[C@H](NC(=O)[C@@H]1CCCN1C(=O)CNC(=O)[C@H](Cc1ccccc1)NC(=O)[C@H](CC(N)=O)NC(=O)[C@H](CC(N)=O)NC(=O)[C@H](CO)NC(=O)[C@H](CO)NC(=O)[C@H](Cc1c[nH]cn1)NC(=O)[C@@H](NC(=O)[C@H](CC(C)C)NC(=O)[C@H](Cc1ccccc1)NC(=O)[C@H](CCN)NC(=O)[C@H](C)NC(=O)[C@H](CC(C)C)NC(=O)[C@H](CCCNC(=N)N)NC(=O)[C@H](CCC(N)=O)NC(=O)[C@@H](NC(=O)[C@H](C)NC(=O)[C@@H]1CSSC[C@H](NC(=O)[C@H](CCCCN)NC(=O)[C@@H](N)CCCCNC(=O)CC[C@H](NC(=O)CCCCCCCCCCCCCCCCC(=O)O)C(=O)O)C(=O)N[C@@H](CC(N)=O)C(=O)N[C@@H]([C@@H](C)O)C(=O)N[C@@H](C)C(=O)N[C@@H]([C@@H](C)O)C(=O)N1)[C@@H](C)O)C(C)C)C(=O)N[C@@H](CC(C)C)C(=O)N1CCC[C@H]1C(=O)N1CCC[C@H]1C(=O)N[C@H](C(=O)N[C@@H](CC(N)=O)C(=O)N[C@H](C(=O)NCC(=O)N[C@@H](CO)C(=O)N[C@@H](CC(N)=O)C(=O)N[C@H](C(=O)N[C@@H](Cc1ccc(O)cc1)C(N)=O)[C@@H](C)O)C(C)C)[C@@H](C)O) [Peptide 33 (SEQ ID NO: 33)]
0.349 nM | 4 | 1.28 nM | K([γGlu-C18 diacid])KCNTATCATQRLANFLVHSS[Dab]NFG[Aib]ILPPTNVGSNTY-NH2 (disulfide 3-8; N-terminus assumed; SMILES CC[C@H](C)[C@H](NC(=O)C(C)(C)NC(=O)CNC(=O)[C@H](Cc1ccccc1)NC(=O)[C@H](CC(N)=O)NC(=O)[C@H](CCN)NC(=O)[C@H](CO)NC(=O)[C@H](CO)NC(=O)[C@H](Cc1c[nH]cn1)NC(=O)[C@@H](NC(=O)[C@H](CC(C)C)NC(=O)[C@H](Cc1ccccc1)NC(=O)[C@H](CC(N)=O)NC(=O)[C@H](C)NC(=O)[C@H](CC(C)C)NC(=O)[C@H](CCCNC(=N)N)NC(=O)[C@H](CCC(N)=O)NC(=O)[C@@H](NC(=O)[C@H](C)NC(=O)[C@@H]1CSSC[C@H](NC(=O)[C@H](CCCCN)NC(=O)[C@@H](N)CCCCNC(=O)CC[C@H](NC(=O)CCCCCCCCCCCCCCCCC(=O)O)C(=O)O)C(=O)N[C@@H](CC(N)=O)C(=O)N[C@@H]([C@@H](C)O)C(=O)N[C@@H](C)C(=O)N[C@@H]([C@@H](C)O)C(=O)N1)[C@@H](C)O)C(C)C)C(=O)N[C@@H](CC(C)C)C(=O)N1CCC[C@H]1C(=O)N1CCC[C@H]1C(=O)N[C@H](C(=O)N[C@@H](CC(N)=O)C(=O)N[C@H](C(=O)NCC(=O)N[C@@H](CO)C(=O)N[C@@H](CC(N)=O)C(=O)N[C@H](C(=O)N[C@@H](Cc1ccc(O)cc1)C(N)=O)[C@@H](C)O)C(C)C)[C@@H](C)O) [Peptide 31 (SEQ ID NO: 31)]
0.742 nM | 15 | 11.1 nM | K([γGlu-C18 diacid])KCNTATCATQRLA[Dab]FLVHSSNN[αMeF]GPILPPTEVGSNTY-NH2 (disulfide 3-8; N-terminus assumed; SMILES CC[C@H](C)[C@H](NC(=O)[C@@H]1CCCN1C(=O)CNC(=O)[C@](C)(Cc1ccccc1)NC(=O)[C@H](CC(N)=O)NC(=O)[C@H](CC(N)=O)NC(=O)[C@H](CO)NC(=O)[C@H](CO)NC(=O)[C@H](Cc1c[nH]cn1)NC(=O)[C@@H](NC(=O)[C@H](CC(C)C)NC(=O)[C@H](Cc1ccccc1)NC(=O)[C@H](CCN)NC(=O)[C@H](C)NC(=O)[C@H](CC(C)C)NC(=O)[C@H](CCCNC(=N)N)NC(=O)[C@H](CCC(N)=O)NC(=O)[C@@H](NC(=O)[C@H](C)NC(=O)[C@@H]1CSSC[C@H](NC(=O)[C@H](CCCCN)NC(=O)[C@@H](N)CCCCNC(=O)CC[C@H](NC(=O)CCCCCCCCCCCCCCCCC(=O)O)C(=O)O)C(=O)N[C@@H](CC(N)=O)C(=O)N[C@@H]([C@@H](C)O)C(=O)N[C@@H](C)C(=O)N[C@@H]([C@@H](C)O)C(=O)N1)[C@@H](C)O)C(C)C)C(=O)N[C@@H](CC(C)C)C(=O)N1CCC[C@H]1C(=O)N1CCC[C@H]1C(=O)N[C@H](C(=O)N[C@@H](CCC(=O)O)C(=O)N[C@H](C(=O)NCC(=O)N[C@@H](CO)C(=O)N[C@@H](CC(N)=O)C(=O)N[C@H](C(=O)N[C@@H](Cc1ccc(O)cc1)C(N)=O)[C@@H](C)O)C(C)C)[C@@H](C)O) [Peptide 32 (SEQ ID NO: 32)]
